Measurements published in patent US20120208237A1 (Novo Nordisk, published 2012).
Like-named read-outs stand apart in the source and are kept apart here. One block for each molecule: values may come before it.

How the values were obtained:
[1] = biological target: recombinant soluble KIR2DL1 (entire extracellular domain, produced in E. coli) (human) (UniProt P43626); test: Biacore, KIR2DL1 chip; first Ab 1-6F1 bound
[2] = biological target: recombinant soluble KIR2DL1 (entire extracellular domain, produced in E. coli) (human) (UniProt P43626); test: Biacore, KIR2DL1 chip; first Ab 1-6F5 bound
[3] = biological target: recombinant soluble KIR2DL1 (entire extracellular domain, produced in E. coli) (human) (UniProt P43626); test: Biacore, KIR2DL1 chip; first Ab 1-7F9 bound
[4] = biological target: recombinant soluble KIR2DL3 (entire extracellular domain, produced in E. coli) (human) (UniProt P43628); test: Biacore, KIR2DL3 chip; first Ab 1-4F1 bound
[5] = biological target: recombinant soluble KIR2DL3 (entire extracellular domain, produced in E. coli) (human) (UniProt P43628); test: Biacore, KIR2DL3 chip; first Ab 1-6F1 bound
[6] = biological target: recombinant soluble KIR2DL3 (entire extracellular domain, produced in E. coli) (human) (UniProt P43628); test: Biacore, KIR2DL3 chip; first Ab 1-6F5 bound
[7] = biological target: recombinant soluble KIR2DL3 (entire extracellular domain, produced in E. coli) (human) (UniProt P43628); test: Biacore, KIR2DL3 chip; first Ab 1-7F9 bound
[8] = biological target: immobilized KIR2DS1 protein (human) (UniProt Q14954); test: Biacore, KIR2DS1 chip; first Ab 1-7F9 bound
Chain of immobilized KIR2DS1 protein (human) (Q14954 22-245 limits assumed): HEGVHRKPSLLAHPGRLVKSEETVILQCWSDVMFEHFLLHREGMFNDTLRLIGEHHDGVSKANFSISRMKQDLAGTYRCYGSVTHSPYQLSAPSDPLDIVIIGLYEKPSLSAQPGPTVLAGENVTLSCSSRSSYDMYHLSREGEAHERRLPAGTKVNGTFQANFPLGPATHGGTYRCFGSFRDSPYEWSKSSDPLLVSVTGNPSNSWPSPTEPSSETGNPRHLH

[9] = biological target: recombinant soluble KIR2DL1 (entire extracellular domain, produced in E. coli) (human) (UniProt P43626); test: Biacore competition, KIR2DL1 chip; competitor (second Ab) EB6
[10] = biological target: recombinant soluble KIR2DL1 (entire extracellular domain, produced in E. coli) (human) (UniProt P43626); test: Biacore competition, KIR2DL1 chip; competitor (second Ab) 1-4F1
[11] = biological target: recombinant soluble KIR2DL1 (entire extracellular domain, produced in E. coli) (human) (UniProt P43626); test: Biacore competition, KIR2DL1 chip; competitor (second Ab) 1-6F1
[12] = biological target: recombinant soluble KIR2DL1 (entire extracellular domain, produced in E. coli) (human) (UniProt P43626); test: Biacore competition, KIR2DL1 chip; competitor (second Ab) 1-6F5
[13] = biological target: recombinant soluble KIR2DL1 (entire extracellular domain, produced in E. coli) (human) (UniProt P43626); test: Biacore competition, KIR2DL1 chip; competitor (second Ab) 1-7F9
[14] = biological target: recombinant soluble KIR2DL1 (entire extracellular domain, produced in E. coli) (human) (UniProt P43626); test: Biacore competition, KIR2DL1 chip; competitor (second Ab) Pan2D
[15] = biological target: recombinant soluble KIR2DL1 (entire extracellular domain, produced in E. coli) (human) (UniProt P43626); test: Biacore, KIR2DL1 chip; direct binding (field of first Ab 1-6F1)
[16] = biological target: recombinant soluble KIR2DL1 (entire extracellular domain, produced in E. coli) (human) (UniProt P43626); test: Biacore, KIR2DL1 chip; direct binding (field of first Ab 1-6F5)
[17] = biological target: recombinant soluble KIR2DL1 (entire extracellular domain, produced in E. coli) (human) (UniProt P43626); test: Biacore, KIR2DL1 chip; direct binding (field of first Ab 1-7F9)
[18] = biological target: recombinant soluble KIR2DL3 (entire extracellular domain, produced in E. coli) (human) (UniProt P43628); test: Biacore competition, KIR2DL3 chip; competitor (second Ab) 1-4F1
[19] = biological target: recombinant soluble KIR2DL3 (entire extracellular domain, produced in E. coli) (human) (UniProt P43628); test: Biacore competition, KIR2DL3 chip; competitor (second Ab) 1-6F1
[20] = biological target: recombinant soluble KIR2DL3 (entire extracellular domain, produced in E. coli) (human) (UniProt P43628); test: Biacore competition, KIR2DL3 chip; competitor (second Ab) 1-6F5
[21] = biological target: recombinant soluble KIR2DL3 (entire extracellular domain, produced in E. coli) (human) (UniProt P43628); test: Biacore competition, KIR2DL3 chip; competitor (second Ab) 1-7F9
[22] = biological target: recombinant soluble KIR2DL3 (entire extracellular domain, produced in E. coli) (human) (UniProt P43628); test: Biacore competition, KIR2DL3 chip; competitor (second Ab) GL183
[23] = biological target: recombinant soluble KIR2DL3 (entire extracellular domain, produced in E. coli) (human) (UniProt P43628); test: Biacore competition, KIR2DL3 chip; competitor (second Ab) Pan2D
[24] = biological target: recombinant soluble KIR2DL3 (entire extracellular domain, produced in E. coli) (human) (UniProt P43628); test: Biacore, KIR2DL3 chip; direct binding (field of first Ab 1-4F1)
[25] = biological target: recombinant soluble KIR2DL3 (entire extracellular domain, produced in E. coli) (human) (UniProt P43628); test: Biacore, KIR2DL3 chip; direct binding (field of first Ab 1-6F1)
[26] = biological target: recombinant soluble KIR2DL3 (entire extracellular domain, produced in E. coli) (human) (UniProt P43628); test: Biacore, KIR2DL3 chip; direct binding (field of first Ab 1-6F5)
[27] = biological target: recombinant soluble KIR2DL3 (entire extracellular domain, produced in E. coli) (human) (UniProt P43628); test: Biacore, KIR2DL3 chip; direct binding (field of first Ab 1-7F9)
[28] = biological target: immobilized KIR2DS1 protein (human) (UniProt Q14954); test: Biacore competition, KIR2DS1 chip; competitor (second Ab) 1-4F1
[29] = biological target: immobilized KIR2DS1 protein (human) (UniProt Q14954); test: Biacore competition, KIR2DS1 chip; competitor (second Ab) 1-7F9
[30] = biological target: immobilized KIR2DS1 protein (human) (UniProt Q14954); test: Biacore competition, KIR2DS1 chip; competitor (second Ab) Pan2D
[31] = biological target: immobilized KIR2DS1 protein (human) (UniProt Q14954); test: Biacore, KIR2DS1 chip; direct binding (field of first Ab 1-7F9)
[32] = biological target: recombinant soluble KIR2DL1 (entire extracellular domain, produced in E. coli) (human) (UniProt P43626); test: Biacore SPR, antibody over immobilized KIR2DL1 (bivalent binding)
[33] = biological target: recombinant soluble KIR2DL3 (entire extracellular domain, produced in E. coli) (human) (UniProt P43628); test: Biacore SPR, antibody over immobilized KIR2DL3 (bivalent binding)
[34] = biological target: recombinant soluble KIR2DL1 (entire extracellular domain, produced in E. coli) (human) (UniProt P43626); test: Biacore competition (Example 10), KIR2DL1 chip; competitor (second Ab) 1-7F9
[35] = biological target: recombinant soluble KIR2DL1 (entire extracellular domain, produced in E. coli) (human) (UniProt P43626); test: Biacore competition (Example 10), KIR2DL1 chip; competitor (second Ab) Pan2D
[36] = biological target: recombinant soluble KIR2DL1 (entire extracellular domain, produced in E. coli) (human) (UniProt P43626); test: Biacore competition (Example 10), KIR2DL1 chip; competitor (second Ab) DF200 (self)
[37] = biological target: recombinant soluble KIR2DL3 (entire extracellular domain, produced in E. coli) (human) (UniProt P43628); test: Biacore competition (Example 10), KIR2DL3 chip; competitor (second Ab) 1-7F9
[38] = biological target: recombinant soluble KIR2DL3 (entire extracellular domain, produced in E. coli) (human) (UniProt P43628); test: Biacore competition (Example 10), KIR2DL3 chip; competitor (second Ab) Pan2D
[39] = biological target: recombinant soluble KIR2DL3 (entire extracellular domain, produced in E. coli) (human) (UniProt P43628); test: Biacore competition (Example 10), KIR2DL3 chip; competitor (second Ab) DF200 (self)
[40] = biological target: T1, KIR2DS3 expressed on transfected cells (human, UniProt Q14952 22-304); test: flow cytometry on cells transfected with KIR2DS3 (fifth column; its head is printed KIRDLS1 a second time, the legend's order gives KIR2DS3)
T1 construct: whole, on cells
T1 sequence (Q14952 22-304): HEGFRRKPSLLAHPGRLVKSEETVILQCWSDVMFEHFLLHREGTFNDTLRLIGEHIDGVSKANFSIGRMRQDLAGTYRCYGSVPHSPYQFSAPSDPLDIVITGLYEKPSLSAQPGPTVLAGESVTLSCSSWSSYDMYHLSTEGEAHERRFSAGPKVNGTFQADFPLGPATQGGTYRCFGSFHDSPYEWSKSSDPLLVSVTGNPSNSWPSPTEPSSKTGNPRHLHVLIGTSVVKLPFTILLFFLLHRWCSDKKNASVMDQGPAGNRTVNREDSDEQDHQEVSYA
Summary of the method: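 Binding of human anti-KIR monoclonal antibodies to cells stably transfected with KIR2DS3 was measured by flow cytometry. Cells were incubated with the antibody at various concentrations (typically 0-50 μg/ml) in DMEM medium containing 2% FCS. They were then washed and stained with an APC-conjugated secondary antibody specific for human IgG, with all incubations and washes at 0-4° C. Cells were resuspended in PBS and analysed on a FACScalibur or FACScanto.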

[41] = biological target: T1, KIR2DS3 expressed on transfected cells; test: flow cytometry on cells transfected with KIR2DS3 (fifth column; its head is printed KIRDLS1 a second time, the legend's order gives KIR2DS3); remark: listed apart in the source
Description: The KIR2DL cross-reactive mAbs were then tested for their ability to react with KIR at the surface of cells by flow cytometry. Briefly, the binding of the human anti-KIR mAbs was tested by incubating them with various cell lines stably over-expressing KIRs (e.g., YTS-2DL1, BWZ-KIR2DL2 and BWZ-KIR2DS4) or not expressing KIRs (e.g., YTS and BWZ). Briefly, cells were incubated with various concentrations (typically 0-50 μg/ml) of human anti-KIR mAb1-7F9 in DMEM-medium containing 2% FCS. After incubation, cells were washed and incubated with APC-conjugated secondary antibodies specific for human IgG. All incubations and washing steps were performed at 0-4° C. Subsequently, cells were washed, resuspended in PBS, and analyzed by flow cytometry on a FACScalibur or a FACScanto (both from Beckton Dickinson).

RU, second antibody after first antibody [1]: 310 RU | RU, second antibody after first antibody [2]: 290 RU | RU, second antibody after first antibody [3]: 545 RU | RU, second antibody after first antibody [4]: 210 RU | RU, second antibody after first antibody [5]: 760 RU | RU, second antibody after first antibody [6]: 760 RU | RU, second antibody after first antibody [7]: 450 RU | RU, second antibody after first antibody [8]: 1090 RU | % inhibition of second antibody binding [9]: 90% | % inhibition of second antibody binding [10]: 92% | % inhibition of second antibody binding [11]: 15% | % inhibition of second antibody binding [12]: 15% | % inhibition of second antibody binding [13]: 27% | % inhibition of second antibody binding [14]: 80% | RU, second antibody alone [15]: 350 RU | RU, second antibody alone [16]: 350 RU | RU, second antibody alone [17]: 600 RU | % inhibition of second antibody binding [18]: 75% | % inhibition of second antibody binding [19]: 16% | % inhibition of second antibody binding [20]: 4% | % inhibition of second antibody binding [21]: 62% | % inhibition of second antibody binding [22]: 20% | % inhibition of second antibody binding [23]: 75% | RU, second antibody alone [24]: 1140 RU | RU, second antibody alone [25]: 790 RU | RU, second antibody alone [26]: 800 RU | RU, second antibody alone [27]: 770 RU | % inhibition of second antibody binding [28]: 87% | % inhibition of second antibody binding [29]: 15% | % inhibition of second antibody binding [30]: 70% | RU, second antibody alone [31]: 900 RU | Kd [32]: 10.9 nM | Kd [33]: 2 nM | % inhibition of second antibody binding [34]: 17% | % inhibition of second antibody binding [35]: 85% | % inhibition of second antibody binding [36]: 80% | % inhibition of second antibody binding [37]: 80% | % inhibition of second antibody binding [38]: 50% | % inhibition of second antibody binding [39]: 85%
Molecule: murine monoclonal antibody DF200

binding result [40]: no binding (tested: 1 µg/ml)
B1: murine monoclonal antibody NKVSF1 (Pan2D) (antibody, V domains shown)
VH: EVQLQQSGTVLARPGASVKMSCKASGYTFTSYWMHWMKQRPGQGLEWIGTIYPGNSDTNYNQKFKGKAKLTAVTSTNTAYMELSSLTNEDSAVYYCSRPTTATRSSAMDYWGQGTSVTVSS
VL: QIVLTQSPASMSASLGERVTMTCTASSSVSSSYLYWYQQKPGSSPKLWIYSTSNLASGVPARFSGSGSGTSYSLTISSMEAEDAATYYCHQYHRSPPTFGGGTKLEIKR
notes: Murine mAb, bought from Serotec (MCA2243)

binding result [41]: no binding (tested: 1 µg/ml)
B2: human monoclonal antibody 1-7F9 (antibody, human IgG4, kappa, V domains shown)
VH: QVQLVQSGAEVKKPGSSVKVSCKASGGTFSFYAISWVRQAPGQGLEWMGGFIPIFGAANYAQKFQGRVTITADESTSTAYMELSSLRSDDTAVYYCARIPSGSYYYDYDMDVWGQGTTVTVSS
VL: EIVLTQSPVTLSLSPGERATLSCRASQSVSSYLAWYQQKPGQAPRLLIYDASNRATGIPARFSGSGSGTDFTLTISSLEPEDFAVYYCQQRSNWMYTFGQGTKLEIKR
notes: also called HuKIR 1-7F9; HuKIR1-7F9
